B1: recombinant sdAbE2-2 (VHH)
VHH: DVQLVESGGGLVQAGGSLRLSCTASGFTFDDYAMAWFRQPPGKEREGVSCISSSGGSTWYADSVKGRFTVSRDNAKNTLYLQMNSLKPEDTAMYYCAADWGRLCVVRGPRNEYKYSGQGTQVTVSS
B2: recombinant sdAbE2-1 (VHH)
VHH: QVQLLESGGGLVQPGGSLRLSCAASGYSFIDKTMAWVRQAPGKGLEWVSAIRMHNGSTYYADSVKGRFTISRDNSKNTLYLQMNSLRAEDTAVYYCARLSRRIQAKDKAKLKYWGQGTLVTVSS

What was measured:
[1] = target: truncated E2 protein of CSFV C-strain with glutathione S-transferase tag (grE2) (classical swine fever virus, C-strain); test: ELISA
[2] = target: truncated E2 protein of CSFV C-strain with glutathione S-transferase tag (grE2) (classical swine fever virus, C-strain); test: SPR

Binder | OD450nm value [1] | Kd [2] [nM] | koff [2] [s⁻¹] | kon [2] [M⁻¹ s⁻¹]
B1 | 0.743 | 13.5 | 0.00859 | 635000
B2 | 0.765 | 334 | 0.00791 | 23700
